Assay: yeast display, Sf9 membrane polyspecificity reagent, FACS + sequencing; frameworks hold sequencing errors
Procedure, shortened: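 After 36–48 hours of galactose induction, yeast (Saccharomyces cerevisiae BJ5465) displaying a synthetic nanobody library were stained at 4 °C for 1 hour with 10% biotinylated, detergent-solubilized Sf9 membrane reagent. Streptavidin microbeads enriched the stained cells before FACS sorting into low and high (top ~1%) gates on anti-HA and streptavidin fluorescence. Each clone's polyreactivity label reflects its gate of origin.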

Sequence | polyreactivity (PSR sort gate)
QVQLVESGGGLVQAGGSLRLSCAATVSTFWNYAMGWYRQAPGKERELVAAITRGSSTNYADSVKGRFRISRDNAKNTVYLQMNSLKPEVTAVYYCAKRVGRWSAFYYWGQGTQVTVSS | high polyreactivity
QVQLVESGGGLVQAGGSLRLSCAASGFTIWDYAMGWYRQAPGKERELVAAISRRGGTTYYADSVKGRFTISRDNAKNTVYLQMNSLKPEETAVYYCATYSYTWLNYYWGQGTQVTVSS | high polyreactivity
QVQLVESGGGLVQAGGSLRLSCAASGSIFDANAIGWYRQAPGKERELVAAIDSGDITNYADSVKGRFTISRDNAKNTVYLQMNSLKPEDTAVYYCAAEWHYIYAYDYWGQGTQVTVSS | low polyreactivity
QVQLVESGGGLFQEGGSLRLSCAASGYTFKGNAMGWYRQAPGKDWELVAAISRSGASTYYADSVKGRFTISRDNAKNTVYLQMNSLKPEDTAVYYCAAEWYRGGEYRRYDYWGQGTQVTVSS | high polyreactivity
QVQLVESGGGLVQAGGSLRLSCAASGRILYSYAMGWYRQAPGKERELVASISWSGGSTYYADSVKGRFTISRDNAKNTVYLQMNSLKPEDTAVYYCAKKYYSVYQTDVSGRYDYWGQGTQVTVSS | low polyreactivity
QVQLVESGGGLVQAGGSLSLICAASGRTSVVNAMGWYRKAPGKERELVAAITSGGSTHYADSVKGRFTISRDNAKNTVYLQMNSLKPEDTAVYYCTKRGHPARLGYYYWGQGTQVTVSS | low polyreactivity
QVQLVESGGGLVQAGGSLRLSCAASGSIFKGNAMGCYRQAPWKESEMVAAISGGGGSTYYADSVKGRFTISRDNAKNTVYLQMYSLKPEDTAVYYCAARYYESPGDRSGFRYGYWGQGTQVTVSS | high polyreactivity
QVQLVESGVGIVQAGGSLRLSCAASGSIFKTNAMGWYRHAPGNERELVAAITGSGGSTYYADSVKGRFTISRDNAKNNVYLQMMSLKPEDTAVYYCAKRSYRPILRWSYDYWGQGTQVTVSS | low polyreactivity
QVQLVESGGGLVKAGGSLRLSCAASGRTFLRNAMGWYRQAPGKERELVATITRGGSTYYADSVKGRFTISRDNAKNTVYLQMNSLKPEDTAVYYCAKDITGCFRRPDYGYWGQGTQVTVSS | low polyreactivity
QFQLVESGGGLVQAGGSLRLSCAASGFIFFNYAMGWYRQAPGKERELVASINWSTGSTYADSVKGRFTISRDNAKNTVYLQMNSLKPEDSAVYYCNTDHRRVAIPGGYWGQGTQVTVSS | low polyreactivity
QVQLVESGGGLVQAGVSLRLSCAASGRIFYRYAMGWYRPPPVKERELVAGITSGGSTYYADSVKGRFTISRDNAKNTVYLQMMSLKPEDTAVYYCAAVSYRSRTHRYPATFAYGSWGQGTQETVSS | high polyreactivity
QVQRVESGGGLVQAGGSLRLSCAATGLIFSPYAMGWYRQAPGKEREFVAGITWRGGNTYYADSVKGRFTISRDNAKNTVYLQMNSLNPEDTAVYYCAAYERKFYTVSRWYKLDYWGQGTQVTVSS | high polyreactivity
QVQLVESGGGLVQAGGSLRLSCAASGRIFWYYPMGGYRQAPGKEREYVATINTSGGSTYYADSVKGRFTISRDNAKNTVYLQMNRLKPEDTAVYYCNAAYRFYRTEYYSWGQGTQVTVSS | low polyreactivity
QVQRVESGGGLVQAGGSLRLSCAASGSTFTWNVMGWYRQAPGKERELVASITSGDSTYADSVKGRFTISRDNAKNTVYLQMNSLKPEDTAVYYCNVGYDQEKYGYWGQGTQVTVSS | low polyreactivity
QVQLVESGGGLVQAGGSLRLSCAASGFTFRRYAMGWYRQAPGQDRELVAAISYRGGTYYADSVKGRFTISRDNAKNTVYLQMNSLKPEDTAVYYCNARYRGKYSSYGYWGQGTQVTVSS | high polyreactivity
QVQLVESGGGLVQAGGSLRLSCAASGRIFWWYVMGWYRQAPGKERELVAAITRSGVSTYYADSVKGRFTLSRDNAKNTVYLQINSLKPEDTAVYYCNVGPWPRSYAHRGYWGQVTQVTVSS | high polyreactivity

Sequence | polyreactivity (PSR sort gate)
QVQLVESGGGLLQAGCSLRISCAASGFIFYKYVMGWYRPAPGKERELVAAINWSGGSTYYADSVKGRFTISRDNAKNTVYLQMNSLKQEDTAVYYCNAARRSKGGLNDYYWGQGTQVTVSS | high polyreactivity
QVQLVESGGGLVQAGGSLRLSCAASGRTFQFYPMGWYRQAPGKERELVAAIDLRGGSTYYADSVKGRFTISRDNAKNTVYLQMNSLKPEDTAVYYCNADRYTGRDGEQSLDYWGQGTQVTVSS | low polyreactivity
QVHLVDTGGGLVQARGRLRLSCPASGYNFSYYAMASYRQAPGKERELVATIDWGGGSTYYADSVQGRFTISRDIAKNTVYLQLNSLKPEDTGVYYCAKDYYINNYGYRYVSWGKGTQVTVSS | low polyreactivity
QVQLVESGGGLVQAGGSLRLSCAASGRTIAPYAMGSYRQAPGKERELVAAITYSGGSTYYADSVKGRFTISRDNAKNTVYLQMNSLKPEDTAVYYCAVDTTTSYTVEYDYWGQGTQVTVSS | low polyreactivity
QVQLVESGGGLVQAGGSLRLSCAASGRIFRIYAMGWYIQAPGKERELVARITYSVGSTYYADSVKGRFTISRDNEKNSVFLQMNSLKPEDTSVYYCAADWLGYQYGYWGQGSQVTVSS | low polyreactivity
QFQLVESRGGLVQAGGSLRLSCAASGSIFGSNAMGLYRQAPAKERELVAANSGSGGSTNYADSVKGRLTLSRDIAQNTVYLHMNSLKPEDTAVYYCAVPSKATGSASTSYGIFDSWGQGTQVTVSS | low polyreactivity
QVQLVESGGGLVQAGGRLRLSCAASGRTFTYFAMGWYRKAPGKERELVAAISWDDDSTYYADSVKGRFTISRDYAKNTVYLQMNSLKPEDTAVYYCAASYYRQSGEYDYWGQGTQVTVSS | low polyreactivity
QVQLVESGGGLVQAGGRLRLSCAASGLTFYLSAMGWYRQAPGKERELVAGISRSGGSTYYADAVKGRFTISRDYAKNTVYLLMNSLKPEDTAVSYCNKASAVFEFYYWGQGTQVTVSS | high polyreactivity
QVQLVESGGSLVQAGGSLRLSCAASGSTLYYNAMGWYRQAPGKERELVAAISWSGGSTYYADSVKGRFTISRDNAKNTVYLQMNSLKPEDTSVYYCAADQSTVLDVGSWGQGTQVTVSS | low polyreactivity
QVQLVESGGGLVQAGRSLRLSCAASGIIFEWNGMGWYRQAPGKERELVAALPWSGGSTYYADSVKGRFTISRDNAKNTVYLQMNSLKPEDTAVYYCNAYWKDDFEDGPGRRGMDYWGQGSQVTVSS | low polyreactivity
HVQLVESGGGLVQAGGSLRLSCAASGSIFVYNAMGWFRPAPGKERELVAGITFIGGSTYYADSVKGRFTISRDNAKNTVYLHMNSLKPVDNAVSYCATQEDWEDDWGQGTKVTVSS | low polyreactivity
QVQLVESGGGLVQAGGSLRLSCAASGITFVTYAMGWYRKAPGKERELVAAISRSGGRTYYADSVKGRFTISRDNAKNTVYLQMNSLKPEDTAVYYCAAERKNKYDYWGQGTQVTVSS | high polyreactivity
QVQLVESGGGLVQAGGSLRLSCAASGSTFYFNAMGWYRQAPGKERELVAGIYSGGSTYYADSVKGRFTISRDNAKNTVYLQMNSLKTEDTAVYYCAATWLVERPFSYTEYGYWGQGTQVTVSS | low polyreactivity
QVQLVESGGGLVQAGGSLRLSCAASGSIFAYYAMGGYRQAPGKERELVAAITSGDSTYYADSVKGRFTISRDNAKNTVYLQMNSLKPEDTAVYYCAADHIWFYFYLYDYWGQGTQVTVSS | low polyreactivity
QVQLVESGGGLVQAGGSLRLSCAASGRTLGHNAMGWYRPAPGKERELVAAITSRGGTTYADSVKGRFTISRDNAKKTVYLQMNSLKPEETAVYYCAARVSGSRKYYYWGQGTQVTVSS | high polyreactivity
QVQLVDSRGGLVQAGGSLRLSCAASGFIFSRYAMGWSRQAPGKERELVAAISYRGGSTYYADSVKGRFTISRDNAKNPVYLQMNSLKPEDTAVYYCAASLRYYGLEMDYWGQGTQVTVSS | high polyreactivity

— the nanobody polyreactivity screen of Harvey et al. (2022)
